According to CN111303278A (JANSSEN VACCINES & PREVENTION BV, dated 2020):

Target: Sym-1789
Experiment: ELISA, biotinylated peptide on avidin plate, mAb titrated

Binder | IC50 [µg/mL]
CB017.5L (antibody, V domains shown) VH: QVQLVESGGGVVQPGRSLRLSCSASGFTFSVYAMHWVRQAPGQGLEWVAIIWYDGSNKYYADSVKGRFTISRDNSKETLYLQMNSLRVEDTAVYYCARDPIVGHTRDGLDVWGQGTTVTVSS VL: SYELTQPPSVSVSPGQTARVTCSGDAMAEQYTYWYQQKPGQAPVLIIFKDTERPSGIPERFSGSSSGTTVTLTISGVQTEDEADYYCQSTDSSGTSWVFGGGTKLTVL | ~0.02
CB030.1 (antibody, V domains shown) VH: QVQLVQSGAEMKRPGSSVKVSCKASGGTFSTFAINWVRQAPGQGFEWMGGVIPGFDSANYAQKFQGRLTMSADESTSTVYMELSSLRSDDTAVYYCAGNSGYCSGDSCAPNWGPGTLVTVSS VL: DIVMTQSPLSLPVTPGEPASISCRSSQSLVHSNGYSYLDWYLQKPGQSPQLLIYLGSNRPSGVPDRFSGSGSGTDFTLKISRVEAEDVGVYFCMQNLQTPTFGGGTKVEIK | ~0.02
